Target: truncated HsDNPH1 (Homo sapiens 2′-deoxynucleoside 5′-phosphate N-hydrolase 1) (human) (UniProt O43598)
Assay: crystal structure; HsDNPH1^Trunc at 8 mg/mL in 30 mM Tris-HCl pH 7.5, 150 mM NaCl, hanging drop, 20 °C, reservoir pH 4.0 with 20% PEG 1500; unliganded crystals and crystals soaked with 50 mM dUMP

With “truncated HsDNPH1 (Homo sapiens 2′-deoxynucleoside 5′-phosphate N-hydrolase 1) (from UniProt O43598 20-162) (enzyme)” the stoichiometry N was 2.

Source: publication PMC10483697
